Data reported in FireProtDB (doi:10.1021/bi9621829).

Conditions: Homo sapiens; pH 2.7; Thermal; DSC; glycine 0.05 M; reversible: yes; whole UniProt chain shown

B1: Lysozyme C wild type, P61626 (protein)
chain: MKALIVLGLVLLSVTVQGKVFERCELARTLKRLGMDGYRGISLANWMCLAKWESGYNTRATNYNAGDRSTDYGIFQINSRYWCNDGKTPGAVNACHLSCSALLQDNIADAVACAKRVVRDPQGIRAWVAWRNRCQNRDVRQYVQGCGV
- Tm: 64.9 °C
- heat capacity change of unfolding: 1.58 kcal/mol/K
- unfolding enthalpy (calorimetric): 114 kcal/mol
- unfolding enthalpy (van 't Hoff): 120 kcal/mol
